{"source": "patent US20100216693A1", "about": "(published 2010)", "binders": {"B1": {"name": "C-peptide variant Glu11-Ala (peptide)", "peptide": "EAEDLQVGQVALGGGPGAGSLQPLALEGSLQ"}, "B2": {"name": "C-peptide variant with Glu3, 11 and 27 all exchanged for Ala (peptide)", "peptide": "B1 peptide with E3A, E27A"}, "B3": {"name": "C-peptide variant Glu27-Ala (peptide)", "peptide": "B1 peptide with A11E, E27A", "notes": "also called Glu27Ala C-peptide analogue"}}, "target": "T1, Human insulin (Actrapid) (human)", "T1 construct": "On the chip it was coupled through the N-terminus (amine coupling) or the C-terminus (surface thiol coupling); also called free insulin; immobilized insulin", "T1 sequence (chain, as listed by the source, chain 1 of 2)": "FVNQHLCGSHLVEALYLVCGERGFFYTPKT", "T1 sequence (chain, as listed by the source, chain 2 of 2)": "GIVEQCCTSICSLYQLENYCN", "experiment": "SPR, immobilized insulin", "note": "Changes are numbered by the printed parent chain."}
{"binder": "B1", "values": [{"measurement": "binding result", "result": "no binding"}]}
{"binder": "B2", "values": [{"measurement": "binding result", "result": "no binding"}]}
{"binder": "B3", "values": [{"measurement": "binding result", "result": "no binding"}]}
